Drawing on paper PMC6303327, this text covers EC50 for two substances.

Test [1] addresses Rfa3 OB domain (DBD-E), residues 1-99, without the C-terminal trimerisation helix (S. cerevisiae) (UniProt P26755). Kind of test: MST; as the MST without ssDNA, but in the presence of excess ssDNA (dT10 at 2 µM in each binding reaction; grey trace); replicated twice; apparent EC50 from the Hill equation.
For test [2] the target is unchanged. Nature of the test: MST; 50 nM NT-495-labelled DBD-E mixed with equal volumes of a dilution series of DBD-A; 20 mM Tris pH 7.5, 150 mM NaCl, 0.5 mM TCEP, 0.01% Tween-20, 0.1 mg/ml BSA; 25 °C; no ssDNA (black trace); apparent EC50 from the Hill equation.

What is called EC50 is the concentration needed to bring the measured effect to its halfway point.

Chain of Rfa3 OB domain (DBD-E), residues 1-99, without the C-terminal trimerisation helix (S. cerevisiae) (P26755 1-99): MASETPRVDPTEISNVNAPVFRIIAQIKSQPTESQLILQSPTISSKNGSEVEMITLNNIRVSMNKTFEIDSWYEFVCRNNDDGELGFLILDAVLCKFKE
Chain of Rfa1 DNA-binding domain A (DBD-A), residues 178-294 (P22336 178-294): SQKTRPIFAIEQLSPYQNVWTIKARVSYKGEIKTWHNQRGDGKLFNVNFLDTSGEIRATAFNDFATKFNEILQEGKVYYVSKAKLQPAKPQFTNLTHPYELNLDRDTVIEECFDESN

For “Rfa1 DNA-binding domain A (DBD-A), residues 178-294, phosphomimetic S178D mutant (from UniProt P22336 178-294) (domain or fragment)”, the EC50 in test [1] turned out to be 25 µM; in test [2], 23 µM.
With “Rfa1 DNA-binding domain A (DBD-A), residues 178-294 (from UniProt P22336 178-294) (domain or fragment)”, the values for the concentration giving a half-maximal response (EC50) in test [1] and in test [2] were 84 µM and 96 µM, respectively.
